Test results: publication PMC9860310 (Proceedings of the National Academy of Sciences of the …, 2022)

Molecular target: GroEL (Escherichia coli, UniProt P0A6F5 1-548)
Assay: reconstitution of the complex

GroEL, sequence (P0A6F5 whole entry): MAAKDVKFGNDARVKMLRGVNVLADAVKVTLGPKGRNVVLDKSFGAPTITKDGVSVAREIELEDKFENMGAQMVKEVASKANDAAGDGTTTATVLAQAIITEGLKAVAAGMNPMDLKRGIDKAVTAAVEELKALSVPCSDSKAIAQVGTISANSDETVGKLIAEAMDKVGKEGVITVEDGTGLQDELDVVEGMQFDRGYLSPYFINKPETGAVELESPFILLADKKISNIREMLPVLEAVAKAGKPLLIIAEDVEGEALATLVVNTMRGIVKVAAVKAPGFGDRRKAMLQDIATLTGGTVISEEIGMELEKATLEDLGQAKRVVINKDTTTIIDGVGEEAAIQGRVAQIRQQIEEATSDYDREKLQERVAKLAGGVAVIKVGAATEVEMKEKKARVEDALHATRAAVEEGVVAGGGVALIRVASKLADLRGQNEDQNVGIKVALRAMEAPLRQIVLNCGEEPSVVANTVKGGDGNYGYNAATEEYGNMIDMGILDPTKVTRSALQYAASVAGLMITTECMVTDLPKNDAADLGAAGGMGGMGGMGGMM

- binding result: binds
B1: GroES (natural protein, Escherichia coli, UniProt P0A6F9 1-97, looked up)
chain: MNIRPLHDRVIVKRKEVETKSAGGIVLTGSAAAKSTRGEVLAVGNGRILENGEVKPLDVKVGDIVIFNDGYGVKSEKIDNEEVLIMSESDILAIVEA
